The results in this text go back to patent publication US20200392227A1 (LYVGEN BIOPHARMA, published 2020).

What all share (assay): BLI
Test [1] deals with T1, human FcRIIA protein (MednaBio, E1033) (human, UniProt P12318 34-218, limits assumed).
T1 construct: Bought; also called FcγRIIA
T1 sequence (looked up): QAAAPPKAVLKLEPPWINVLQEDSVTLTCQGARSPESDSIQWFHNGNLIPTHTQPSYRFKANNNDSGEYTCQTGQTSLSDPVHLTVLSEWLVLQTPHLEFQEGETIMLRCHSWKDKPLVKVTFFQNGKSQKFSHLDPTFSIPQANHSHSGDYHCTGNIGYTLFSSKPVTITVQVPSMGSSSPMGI
A digest of the protocol: (§1)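 On an Octet Red96 System, anti-penta-HIS biosensors loaded with commercial human Fc receptor proteins were dipped into test IgG diluted 1:3 over 8 points from 300 nM. Fcγ receptor runs used pH 7.2 and FcRn runs used pH 6. Global fitting of these biolayer interferometry data gave the values for Kd, kon and koff, using a 1:1 binding model.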

For test [2], the target named is T2, human FcRn protein (MednaBio, E1032) (human, UniProt P55899 24-297; P61769 21-119).
T2 construct: Bought; assays at pH 6
A digest of the protocol: as §1

Test [3] deals with T1, human FcRIIA protein (MednaBio, E1033). The protocol:
(§2) These IgG mutants were tested for binding to a panel of human Fc receptors (FcRs), including FcRn, using the Octet Red96 System (ForteBio, Model #Red96). Human FcR proteins were purchased commercially (FcRn, MednaBio, E1032; FcRI, MednaBio, E1031; FcRIIA, MednaBio, E1033; FcRIIB/C, MednaBio, E1034; FcRIIIA-F158, MednaBio, E1036; FcRIIIA-V158, MednaBio, E1035; FcRIIIB, MednaBio, E1037). All Fey receptor assays were performed at pH 7.2; all FcRn assays were performed at pH 6. The Fey receptors were loaded onto anti-penta-HIS1K (ForteBio, Cat #18-5122) biosensors at a concentration of 20 μg/mL. The loaded biosensors was then be dipped into an 8-point 1:3 dilution series of the test IgG molecules (including controls and the mutants described herein) in PBS with 0.1% BSA, 0.02% Tween-20 (pH 7.2) at a starting concentration of 300 nM. Kinetic analysis was performed using a 1:1 binding model and global fitting.
This is another data set of the same source.

The target of test [4] is T2, human FcRn protein (MednaBio, E1032). As for the experimental part: as §2
The source holds these as a separate data set.

Test [5] has as its target T1, human FcRIIA protein (MednaBio, E1033). A digest of the protocol:
as §1
This is another data set of the same source.

Test [6] addresses T2, human FcRn protein (MednaBio, E1032). In outline: as §1
The source holds these as a separate data set.

Test [7] concerns the target T1, human FcRIIA protein (MednaBio, E1033). A digest of the protocol: as §1
This is another data set of the same source.

Test [8] deals with T2, human FcRn protein (MednaBio, E1032). In outline:
as §1
The source holds these as a separate data set.

In test [9] the target is T1, human FcRIIA protein (MednaBio, E1033). In outline:
as §1
This is another data set of the same source.

In test [10] the target is T2, human FcRn protein (MednaBio, E1032). In outline:
as §1
This is another data set of the same source.

Test [11] has as its target T1, human FcRIIA protein (MednaBio, E1033). The protocol: as §2
This is another data set of the same source.

The target in test [12] is T2, human FcRn protein (MednaBio, E1032). The protocol: as §2
The source holds these as a separate data set.

Test [13] concerns the target T3, human FcRIIB/C protein (MednaBio, E1034) (human, UniProt P31994 43-217, limits assumed).
T3 construct: Bought as FcRIIB/C; also called FcγRIIB; CD32B
T3 sequence (looked up): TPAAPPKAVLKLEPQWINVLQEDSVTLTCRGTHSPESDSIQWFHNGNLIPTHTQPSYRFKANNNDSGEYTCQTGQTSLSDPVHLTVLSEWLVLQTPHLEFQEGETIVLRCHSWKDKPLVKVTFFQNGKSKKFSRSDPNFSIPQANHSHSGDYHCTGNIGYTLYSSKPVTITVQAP
A digest of the protocol:
as §1

Test [14] addresses T2, human FcRn protein (MednaBio, E1032). A digest of the protocol: as §1
The source holds these as a separate data set.

The target in test [15] is T4, human FcRI protein (MednaBio, E1031) (human, UniProt P12314 16-288, limits assumed).
T4 construct: Bought; loaded on anti-penta-HIS biosensors; also called FcγRI
In outline:
as §1

Test [16] has as its target T5, human FcRIIIA-V158 protein (MednaBio, E1035) (human, UniProt P08637 17-208).
T5 construct: Bought; also called FcγRIIIA(V); FcgRIIIA(V)
In outline:
as §1

Test [17] has as its target T3, human FcRIIB/C protein (MednaBio, E1034). A digest of the protocol: as §1
The source holds these as a separate data set.

The target of test [18] is T6, human FcRIIIB protein (MednaBio, E1037) (human, UniProt O75015 17-200).
T6 construct: Bought; also called FcγRIIIB; FcgRIIIB
In outline:
as §1

For test [19], the target named is T7, human FcRIIIA-F158 protein (MednaBio, E1036) (human, UniProt P08637 17-208).
T7 construct: Bought; also called FcγRIIIA(F)
In outline: as §1

Test [20] concerns the target T4, human FcRI protein (MednaBio, E1031). A digest of the protocol:
as §1
The source holds these as a separate data set.

For test [21], the target named is T1, human FcRIIA protein (MednaBio, E1033). In outline: as §1
The source holds these as a separate data set.

Substitutions are numbered along the chain they refer to. Like-named read-outs stand apart in the source and are kept apart here.

T2 sequence (P55899 24-297 limits assumed, form in doubt, chain 1 of 2): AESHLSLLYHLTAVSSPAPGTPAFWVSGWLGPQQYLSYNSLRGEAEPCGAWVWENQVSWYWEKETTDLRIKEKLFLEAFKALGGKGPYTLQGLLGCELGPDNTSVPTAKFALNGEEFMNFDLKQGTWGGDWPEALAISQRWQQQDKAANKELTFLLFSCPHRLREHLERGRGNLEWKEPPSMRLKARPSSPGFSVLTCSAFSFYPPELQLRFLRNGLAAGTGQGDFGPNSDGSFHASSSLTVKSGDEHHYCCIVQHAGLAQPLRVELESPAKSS
T2 sequence (P61769 21-119 limits assumed, form in doubt, chain 2 of 2): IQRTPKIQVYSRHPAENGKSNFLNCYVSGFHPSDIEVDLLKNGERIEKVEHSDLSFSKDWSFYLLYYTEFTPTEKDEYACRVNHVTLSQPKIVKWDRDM
T4 sequence (P12314 16-288 limits assumed): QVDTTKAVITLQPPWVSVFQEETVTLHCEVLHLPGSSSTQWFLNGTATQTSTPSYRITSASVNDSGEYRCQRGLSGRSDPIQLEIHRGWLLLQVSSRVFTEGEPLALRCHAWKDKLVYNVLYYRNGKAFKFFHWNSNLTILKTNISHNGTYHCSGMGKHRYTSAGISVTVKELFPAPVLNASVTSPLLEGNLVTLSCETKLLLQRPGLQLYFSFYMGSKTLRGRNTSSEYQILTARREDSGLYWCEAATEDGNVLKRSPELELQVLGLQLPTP
T6 sequence (O75015 17-200 limits assumed): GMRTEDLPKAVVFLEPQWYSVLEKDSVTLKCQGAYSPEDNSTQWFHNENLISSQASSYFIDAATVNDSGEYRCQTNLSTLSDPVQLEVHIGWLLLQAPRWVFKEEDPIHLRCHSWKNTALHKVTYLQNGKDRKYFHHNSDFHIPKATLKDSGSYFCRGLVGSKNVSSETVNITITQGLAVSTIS
T5 sequence (P08637 17-208 F176V): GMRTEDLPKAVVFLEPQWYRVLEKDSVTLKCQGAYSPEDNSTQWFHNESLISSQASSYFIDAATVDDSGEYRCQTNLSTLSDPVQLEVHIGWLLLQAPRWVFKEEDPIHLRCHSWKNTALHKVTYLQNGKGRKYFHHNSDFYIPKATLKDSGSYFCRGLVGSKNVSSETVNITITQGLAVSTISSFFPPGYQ
T7 sequence (P08637 17-208 limits assumed): as the sequence (P08637 17-208 F176V) above, with V160F counted along it

B1: wild-type human IgG2 control (antibody)
heavy: EVQLVQSGAEVKKPGESLRISCKGSGYSFSTYWISWVRQMPGKGLEWMGKIYPGDSYTNYSPSFQGQVTISADKSISTAYLQWSSLKASDTAMYYCARGYGIFDYWGQGTLVTVSSASTKGPSVFPLAPCSRSTSESTAALGCLVKDYFPEPVTVSWNSGALTSGVHTFPAVLQSSGLYSLSSVVTVPSSNFGTQTYTCNVDHKPSNTKVDKTVERKCCVECPPCPAPPVAGPSVFLFPPKPKDTLMISRTPEVTCVVVDVSHEDPEVQFNWYVDGVEVHNAKTKPREEQFNSTFRVVSVLTVVHQDWLNGKEYKCKVSNKGLPAPIEKTISKTKGQPREPQVYTLPPSREEMTKNQVSLTCLVKGFYPSDIAVEWESNGQPENNYKTTPPMLDSDGSFFLYSKLTVDKSRWQQGNVFSCSVMHEALHNHYTQKSLSLSPGK
light: SYELTQPPSVSVSPGQTASITCSGDNIGDQYAHWYQQKPGQSPVLVIYQDKNRPSGIPERFSGSNSGNTATLTISGTQAMDEADYYCATYTGFGSLAVFGGGTKLTVLGQPKAAPSVTLFPPSSEELQANKATLVCLISDFYPGAVTVAWKADSSPVKAGVETTTPSKQSNNKYAASSYLSLTPEQWKSHRSYSCQVTHEGSTVEKTVAPTECS
notes: Control IgG
As for B1, the Kd was 89 nM in [1]; 10 nM in test [2]; 89 nM in [3]; 10 nM in test [4]; 89 nM in test [5]; 10 nM in test [6]. Also, the Kd in test [7] worked out at 89 nM; in test [8], 10 nM; in test [9] it was 89 nM; in test [10] it was 10 nM; in test [11], 89 nM; in test [12] it was 10 nM. The koff worked out at 0.039 s⁻¹ in test [1]; 0.0099 s⁻¹ in test [2]; 0.039 s⁻¹ in test [3]; 0.0099 s⁻¹ in test [4]; 0.039 s⁻¹ in [5]; 0.0099 s⁻¹ in test [6]. Besides, the koff was 0.039 s⁻¹ in [7]; 0.0099 s⁻¹ in [8]; 0.039 s⁻¹ in test [9]; 0.0099 s⁻¹ in test [10]; 0.039 s⁻¹ in test [11]; 0.0099 s⁻¹ in [12]. Also, the kon in test [1] came out at 440000 M⁻¹ s⁻¹; in test [2], 990000 M⁻¹ s⁻¹; in test [3], 440000 M⁻¹ s⁻¹; in [4], 990000 M⁻¹ s⁻¹; in [5] it was 440000 M⁻¹ s⁻¹; in test [6] it was 990000 M⁻¹ s⁻¹. Further, the kon was found to be 440000 M⁻¹ s⁻¹ in [7]; 990000 M⁻¹ s⁻¹ in test [8]; 440000 M⁻¹ s⁻¹ in test [9]; 990000 M⁻¹ s⁻¹ in [10]; 440000 M⁻¹ s⁻¹ in test [11]; 990000 M⁻¹ s⁻¹ in test [12].

B2: anti-CD137 IgG4 with Fc variant G4m27 (antibody)
heavy: EVQLVQSGAEVKKPGESLRISCKGSGYSFSTYWISWVRQMPGKGLEWMGKIYPGDSYTNYSPSFQGQVTISADKSISTAYLQWSSLKASDTAMYYCARGYGIFDYWGQGTLVTVSSASTKGPSVFPLAPCSRSTSESTAALGCLVKDYFPEPVTVSWNSGALTSGVHTFPAVLQSSGLYSLSSVVTVPSSSLGTKTYTCNVDHKPSNTKVDKRVESKYGPPCPPCPAPEFLGPSVFLFPPKPKDTLMISRTPEVTCVVVDVEQEDPEVQFNWYVDGVEVHNAKTKPREEQFNSTYRVVSVLTVLHQDWLNGKEYKCKVSNKGLPSSIEKTISKAKGQPREPQVYTLPPSQEEMTKNQVSLTCLVKGFYPSDIAVEWESNGQPENNYKTTPPVLDSDGSFFLYSRLTVDKSRWQEGNVFSCSVMHEALHNHYTQKSLSLSLGK
light: B1 light
notes: copies: 2 + 2
Take B2: in test [13], the affinity, expressed as Kd, was 310 nM; the koff is 0.039 s⁻¹; the on-rate (kon) is 130000 M⁻¹ s⁻¹. Moreover, in [14], the Kd is 23 nM, the koff worked out at 0.01 s⁻¹ and the kon turned out to be 450000 M⁻¹ s⁻¹. In [15], the affinity, expressed as Kd, was 66 nM; the koff is 0.025 s⁻¹; the kon stood at 370000 M⁻¹ s⁻¹.

B3: anti-CD137 IgG4 with Fc variant G4m19 (antibody)
heavy: EVQLVQSGAEVKKPGESLRISCKGSGYSFSTYWISWVRQMPGKGLEWMGKIYPGDSYTNYSPSFQGQVTISADKSISTAYLQWSSLKASDTAMYYCARGYGIFDYWGQGTLVTVSSASTKGPSVFPLAPCSRSTSESTAALGCLVKDYFPEPVTVSWNSGALTSGVHTFPAVLQSSGLYSLSSVVTVPSSSLGTKTYTCNVDHKPSNTKVDKRVESKYGPPCPPCPAPEFLSVFLFPPKPKDTLMISRTPEVTCVVVDVEQEDPEVQFNWYVDGVEVHNAKTKPREEQFNSTYRVVSVLTVLHQDWLNGKEYKCKVSNKGFPSSIEKTISKAKGQPREPQVYTLPPSQEEMTKNQVSLTCLVKGFYPSDIAVEWESNGQPENNYKTTPPVLDSDGSFFLYSRLTVDKSRWQEGNVFSCSVMHEALHNHYTQKSLSLSLGK
light: B1 light
notes: copies: 2 + 2
In test [14], B3 displayed a dissociation constant (Kd) of 13 nM, an off-rate constant (koff) of 0.009 s⁻¹ and an on-rate constant (kon) of 690000 M⁻¹ s⁻¹.

B4: anti-CD137 IgG4 with Fc variant G4m8 (antibody)
heavy: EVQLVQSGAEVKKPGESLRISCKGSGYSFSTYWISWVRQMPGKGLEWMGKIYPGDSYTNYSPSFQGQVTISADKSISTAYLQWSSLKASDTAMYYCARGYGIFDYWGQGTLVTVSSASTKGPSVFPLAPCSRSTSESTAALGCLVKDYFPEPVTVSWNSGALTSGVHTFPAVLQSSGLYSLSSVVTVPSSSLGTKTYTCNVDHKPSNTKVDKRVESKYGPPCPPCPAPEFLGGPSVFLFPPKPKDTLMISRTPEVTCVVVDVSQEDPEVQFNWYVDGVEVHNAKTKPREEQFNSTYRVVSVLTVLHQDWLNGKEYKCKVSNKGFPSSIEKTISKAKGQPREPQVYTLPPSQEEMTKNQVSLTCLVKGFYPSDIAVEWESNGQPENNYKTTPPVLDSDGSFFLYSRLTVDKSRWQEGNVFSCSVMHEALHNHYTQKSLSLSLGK
light: B1 light
notes: copies: 2 + 2
Regarding B4, the Kd in test [9] stood at 260 nM; in test [17] it was 89 nM; in [10], 20 nM; in test [20], 3.8 nM. Also, the koff in [9] was found to be 0.1 s⁻¹; in test [17], 0.048 s⁻¹; in test [10], 0.012 s⁻¹; in test [20] it was 0.0028 s⁻¹. Further, the kon in [9] is 390000 M⁻¹ s⁻¹; in [17] it was 530000 M⁻¹ s⁻¹; in test [10] it was 610000 M⁻¹ s⁻¹; in test [20], 720000 M⁻¹ s⁻¹. The binding result in test [16], in test [18] and in [19] was “no binding (tested: 300 nM)” in each case.

B5: anti-CD137 IgG4 with Fc variant G4m25 (antibody)
heavy: B2 heavy with E262S, V268E
light: B1 light
notes: copies: 2 + 2
For B5, the Kd is 660 nM in [21], 240 nM in test [13], 19 nM in test [14] and 46 nM in [15]. The koff in test [21] is 0.038 s⁻¹; in [13] it was 0.03 s⁻¹; in [14] it was 0.009 s⁻¹; in test [15], 0.017 s⁻¹. Also, the on-rate (kon) was determined as 57000 M⁻¹ s⁻¹ in test [21], 130000 M⁻¹ s⁻¹ in test [13], 480000 M⁻¹ s⁻¹ in test [14] and 380000 M⁻¹ s⁻¹ in test [15].
